Target: HA-JMJD5 (wildtype, pEF6) (human, UniProt Q8N371 1-416)
Assay: co-IP

Sequence of HA-JMJD5 (wildtype, pEF6) (Q8N371 whole entry): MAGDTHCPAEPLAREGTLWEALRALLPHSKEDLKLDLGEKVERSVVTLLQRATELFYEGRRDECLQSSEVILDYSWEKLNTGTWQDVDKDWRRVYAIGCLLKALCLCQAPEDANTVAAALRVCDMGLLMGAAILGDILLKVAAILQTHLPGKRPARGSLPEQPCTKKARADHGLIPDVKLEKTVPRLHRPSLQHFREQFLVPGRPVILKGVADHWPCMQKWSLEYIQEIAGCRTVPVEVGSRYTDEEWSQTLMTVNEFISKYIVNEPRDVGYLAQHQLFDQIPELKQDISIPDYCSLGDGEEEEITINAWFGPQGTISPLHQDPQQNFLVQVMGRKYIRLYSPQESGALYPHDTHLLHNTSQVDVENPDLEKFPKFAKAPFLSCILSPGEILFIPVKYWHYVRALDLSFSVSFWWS

binding result: binds
B1: RCCD1-FLAG (wildtype, pIHZ) (natural protein)
chain: MAEERPGAWFGFGFCGFGQELGSGRGRQVHSPSPLRAGVDICRVSASWSYTAFVTRGGRLELSGSASGAAGRCKDAWASEGLLAVLRAGPGPEALLQVWAAESALRGEPLWAQNVVPEAEGEDDPAGEAQAGRLPLLPCARAYVSPRAPFYRPLAPELRARQLELGAEHALLLDAAGQVFSWGGGRHGQLGHGTLEAELEPRLLEALQGLVMAEVAAGGWHSVCVSETGDIYIWGWNESGQLALPTRNLAEDGETVAREATELNEDGSQVKRTGGAEDGAPAPFIAVQPFPALLDLPMGSDAVKASCGSRHTAVVTRTGELYTWGWGKYGQLGHEDTTSLDRPRRVEYFVDKQLQVKAVTCGPWNTYVYAVEKGKS

From publication doi:10.1101/2025.11.22.689938 (bioRxiv, 2025)
